In PMC12416549 (2024):
Residue numbers refer to the chain shown, from its start. In names and notes the source's numbering stands.

T1: TNFR1 (Homo sapiens, UniProt P19438)
T1 chain: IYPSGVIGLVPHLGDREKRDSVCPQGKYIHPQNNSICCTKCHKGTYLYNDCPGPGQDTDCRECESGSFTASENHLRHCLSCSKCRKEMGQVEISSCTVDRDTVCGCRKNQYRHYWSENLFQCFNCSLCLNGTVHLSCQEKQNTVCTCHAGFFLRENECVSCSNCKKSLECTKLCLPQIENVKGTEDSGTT

B1: E61W (designed binder)
chain: SMEEEVEKAAKEYEKKKKEAIEKHLEKLKAKDKEAAERFLKELEEAAKEYAKDEAKTMSEWEAKRRAKKYKEKVLLSELSEEEQKEIKEAEEKLVRTILKYVEEAAK
B2: K31N (designed binder)
chain: B1 chain with K31N, W61E
B3: A90T (designed binder)
chain: B1 chain with W61E, A90T
B4: Y101F (designed binder)
chain: B1 chain with W61E, Y101F
B5: E37D (designed binder)
chain: B1 chain with E37D, W61E
B6: E22Q (designed binder)
chain: B1 chain with E22Q, W61E
B7: K29P (designed binder)
chain: B1 chain with K29P, W61E
B8: A30M (designed binder)
chain: B1 chain with A30M, W61E
B9: E89I (designed binder)
chain: B1 chain with W61E, E89I
B10: E54G (designed binder)
chain: B1 chain with E54G, W61E
B11: E3A (designed binder)
chain: B1 chain with E3A, W61E
B12: Y13S (designed binder)
chain: B1 chain with Y13S, W61E
B13: E86M (designed binder)
chain: B1 chain with W61E, E86M
B14: E22T (designed binder)
chain: B1 chain with E22T, W61E
B15: A90C (designed binder)
chain: B1 chain with W61E, A90C
B16: L76G (designed binder)
chain: B1 chain with W61E, L76G
B17: A67C (designed binder)
chain: B1 chain with W61E, A67C
B18: K107S (designed binder)
chain: B1 chain with W61E, K107S
B19: E37M (designed binder)
chain: B1 chain with E37M, W61E
B20: E14G (designed binder)
chain: B1 chain with E14G, W61E
B21: R65K (designed binder)
chain: B1 chain with W61E, R65K
B22: R65Y (designed binder)
chain: B1 chain with W61E, R65Y
B23: D32N (designed binder)
chain: B1 chain with D32N, W61E
B24: K15H (designed binder)
chain: B1 chain with K15H, W61E

Molecular target: T1, TNFR1
Assay: yeast display SC50

Row | apparent Kd (screen) [nM] | Binder
1 | 1.86 | B1
2 | 0.79 | B2
3 | 0.593 | B3
4 | 0.49 | B4
5 | 0.539 | B5
6 | 0.718 | B6
7 | 7.78 | B7
8 | 0.593 | B8
9 | 3 | B9
10 | 11.4 | B10
11 | 1.86 | B11
12 | 0.49 | B12
13 | 0.869 | B13
14 | 0.539 | B14
15 | 0.593 | B15
16 | 11.4 | B16
17 | 22.2 | B17
18 | 1.05 | B18
19 | 0.718 | B19
20 | 12.5 | B20
21 | 0.869 | B21
22 | 11.4 | B22
23 | 0.79 | B23
24 | 0.49 | B24
